Data set [1] addresses calpain-3 (C129A) ΔNS&IS1 (human) (UniProt P20807). Description: SEC-MALS.
The data set “SEC-MALS” deals with the molecule itself. In words: SEC-MALS.
The data set “native gel or EMSA” concerns the molecule itself. Description: native gel or EMSA.
The data set “SEC-SAXS” deals with the molecule itself. Description: SEC-SAXS.

The molecule “titin N2A region I81-I83 fragment (without His-tag) (domain or fragment)” yielded a stoichiometry N (titin per calpain-3) in data set [1] of 2.

B1: calpain-3 (C129A) ΔNS&IS1 (enzyme, human, UniProt P20807-1 1-821, looked up)
chain: MISRNFPIIGVKEKTFEQLHKKCLEKKVLYVDPEFPPDETSLFYSQKFPIQFVWKRPPEICENPRFIIDGANRTDICQGELGDAWFLAAIACLTLNQHLLFRVIPHDQSFIENYAGIFHFQFWRYGEWVDVVIDDCLPTYNNQLVFTKSNHRNEFWSALLEKAYAKLHGSYEALKGGNTTEAMEDFTGGVAEFFEIRDAPSDMYKIMKKAIERGSLMGCSIDTIIPVQYETRMACGLVRGHAYSVTGLDEVPFKGEKVKLVRLRNPWGQVEWNGSWSDRWKDWSFVDKDEKARLQHQVTEDGEFWMSYEDFIYHFTKLEICNLTADALQSDKLQTWTVSVNEGRWVRGCSAGGCRNFPDTFWTNPQYRLKLLEEDDDPDDSEVICSFLVALMQKNRRKDRKLGASLFTIGFAIYEVPKEMHGNKQHLQKDFFLYNASKARSKTYINMREVSQRFRLPPSEYVIVPSTYEPHQEGEFILRVFSEKRNLSEEVENTISVDRPVKKKKTKPIIFVSDRANSNKELGVDQESEEGKGKTSPDKQKQSPQPQPGSSDQESEEQQQFRNIFKQIAGDDMEICADELKKVLNTVVNKHKDLKTHGFTLESCRSMIALMDTDGSGKLNLQEFHHLWNKIKAWQKIFKHYDTDQSGTINSYEMRNAVNDAGFHLNNQLYDIITMRYADKHMNIDFDSFICCFVRLEGMFRAFHAFDKDGDGIIKLNVLEWLQLTMYA
As for B1, the figures for the “stoichiometry N” value in “SEC-MALS”, in the data set “native gel or EMSA” and in “SEC-SAXS” were 5, 2 and 6, respectively.

The values are drawn from paper PMC10925265 (bioRxiv, 2024).
